For the assay, the target named is PKM2, endogenous in T24 cells (human (endogenous in T24)) (UniProt P14618). Description: cross-linking; T24 cells (LV-DPYSL2, siDPYSL2 or negative control) lysed in 0.5% Triton X-100 sodium phosphate buffer pH 7.3; supernatant treated with 1% formaldehyde for 30 min; Western blot for PKM2 monomer, dimer and tetramer. (In general: A western blot detects proteins with antibodies after separation by electrophoresis.)

A word on the stoichiometry N: it is the number of molecules, sites or subunits per partner or assembly. In turn, “PKM2, endogenous in T24 cells (from UniProt P14618 1-531) (enzyme; other documents disagree on this pair)” returned a stoichiometry N of 2.

Source of the values: PMC8291048.
